Measured values taken from US20020009436A1, “Methods and compositions for inhibiting adhesion by microorganisms” (priority 1999, published 2002).

Columns and labels:
[1] = system: S. pyogenes; test: Collagen binding assay, S. pyogenes; type: cell-based
Description: (§1) Wells were filled with 1 mg/ml soluble collagen overnight at 4° C. Control wells were coated with 1% BSA. The protein solutions were removed and permitted to stand at 37° C. for 1 h. A solution of 2% BSA was added to the wells to block unoccupied sites and prevent non-specific binding of bacteria. After 30 min, BSA was removed and the wells were washed once with distilled water. Finally, the bacterial suspensions (100 μl, OD 1.4) were added to the plates and incubated at 37° C. for 2 h. Unbound bacteria were removed by washing the wells three times with PBS containing 0.01% Tween 20. The wells were dried at 37° C. for 30 min and stained with crystal violet for 15 min. Wells were rinsed with distilled water and dried at 37° C. for 2 h. After adding 100 μl of 95% (v/v) ethanol to each well the plates were then shaken to release the stain and a reading of 550 nm was carried out.

[2] = system: Klebsiella pneumoniae; test: Growth inhibition of Klebsiella pneumoniae; type: cell-based
[3] = system: P. aeruginosa culture supernatants; test: Proteolytic activity of P. aeruginosa culture supernatants on azocoll; type: biochemical; details: culture supernatants treated with 50 units/ml asparaginase
[4] = system: S. sobrinus 6715; test: Disc-diffusion growth assay, S. sobrinus; details: 500 μg/ml and 1.0 mg/ml, 18 h
Description: Standard disc-diffusion assays were performed with 500 μg/ml and 1.0 mg/ml of polyphenol oxidase. Duplicate series of ten-fold dilutions (to 10^−8) of late exponential phase cultures of S. sobrinus were made in PBS. Eighty μl of each concentration of polyphenol oxidase was pipetted onto 13 mm sterile filter paper discs. The discs were applied to the center of agar plates previously inoculated with lawns of S. sobrinus. Plates were incubated for 18 h and examined visually for any effect of polyphenol oxidase on growth of the bacteria.
Duplicate series of ten-fold dilutions (to 10^−8) of late exponential phase cultures of S. sobrinus were made in PBS. Eighty , μl of each concentration of asparaginase was pipetted onto 13 mm sterile filter paper discs. The discs were applied to the center of agar plates previously inoculated with lawns of S. sobrinus. Plates were incubated for 18 h and examined visually for any effect of asparaginase on growth of the bacteria.

[5] = system: Type 1-fimbriated E. coli; test: Flow cytometric adhesion of type 1-fimbriated E. coli to UECs; type: cell-based
Description: Methods for handling polyphenol oxidase and asparaginase and for observing adhesion by microorganisms were generally as described in the previous Examples with variations to adapt these methods to epithelial cells.
The bacteria were labeled intracellularly with the fluorescein dye CFDA-SE. Median fluorescence intensity of the UECs was taken as a measure of the number of bacteria attached to them. In the Figures below, median fluorescence is converted to % adhesion using control conditions (UEC+untreated bacteria) as 100%.

[6] = system: E. coli possessing type 1 fimbriae; test: Adhesion of E. coli to a mannose receptor; type: cell-based; details: E. coli treated with asparaginase versus untreated cells
Description: Materials and methods were generally as described in the Examples above, but modified for observing adhesion by E. coli to a mannose receptor. […] The E. coli were then incubated with a source of mannose receptor.

[7] = system: S. aureus; test: Collagen binding assay, S. aureus; type: cell-based
Description: as §1

[8] = system: F. nucleatum; test: Hemagglutination assay of periodontopathogens, F. nucleatum; type: cell-based, Fusobacterium nucleatum; design: key: + Hemagglutination; − No hemagglutination; details: sheep blood, polyphenol oxidase 90 U/ml or asparaginase 20 U/ml, 90 min
Description: The hemagglutinations were carried out in 96 microwell (Nunc) plates in which 50 μl of 1% suspension of sheep blood and 50 μl of serially diluted cells suspension in phosphate buffered (10 mM Na2HPO4, 10 mM KH2PO4, 150 mM NaCl, 3 mM KCl) were added. The cells were adjusted at 1.4 OD at 540 nm. All the strains were treated in NaCl-free buffer with polyphenol oxidase (90 U/ml) or asparaginase (20 U/ml) for 90 min at 37° C. before hemagglutination.

[9] = system: "trypsin-like" protease activity of P. gingivalis; test: Trypsin-like protease activity of P. gingivalis cells (BAPNA); type: cell-based; details: asparaginase 20 U/ml, polyphenol oxidase 80 U/ml
Description: Cell suspensions of P. gingivalis were adjusted up to 1.3 OD at 540 nm in PB. A 100 μl volume of 700 μg/ml BAPNA (benzoyl-DL-arginine-p-nitroanilide) was added to 3 ml of cell suspension. The cells were incubated at 37° C. for different periods of time. The blank contained BAPNA and buffer in the same proportion as P. gingivalis cell suspension. Tubes were centrifuged and the subsequent supernatant was diluted 1:3 and read at 405 nm. Asparaginase and polyphenol oxidase were 20 and 80 U/ml, respectively.

[10] = system: S. epidermidis (clinical isolate); test: Collagen binding assay, S. epidermidis; type: cell-based; details: untreated 0.09
Description: as §1

[11] = system: P. gingivalis W50 (adhesin) / A. naeslundii T14V (receptor); test: Coaggregation P. gingivalis W50 / A. naeslundii T14V; details: P. gingivalis W50 (adhesin) enzyme treated; polyphenol oxidase 90 U/ml, asparaginase 20 U/ml
Description: (§2) S. sanguis 10556, A. naeslundii strains 12104 and T14V and E. coli were grown static cultures in Todd-Hewitt broth (BBL Microbiology Systems, Cockeysville, Md.). P. gingivalis W50, A. actinomycetemcomitans and C. ochracea were grown in brain heart infusion broth (BBL). F. nucleatum 22586 and P. intermedia 25611 were grown in modified Schaedler broth (BBL). All oral species except S. sanguis 10556 were incubated at 37° C. as static cultures under an anaerobic atmosphere containing H2, CO2 and N2(10:10:80) with GasPaks (BBL). S. sanguis was incubated at 37° C. as static cultures in 5% CO2.
(§3) Bacteria were harvested in the mid to late exponential growth phase by centrifugation (10,000×g for 10 min at 4° C.). The cells were washed twice in coaggregation buffer (30 mM 3-[N-morpholino]propanesulfonic acid (MOPS), pH 7.0) and adjusted to an optical density of 0.6-0.8 at 540 nm (1-cm path). […]
(§4) Coaggregation was assessed by turbidity changes. Following mixing of the cells for 10 s on a Vortex mixer, absorbance readings were made every 30 min. The percentage of coaggregation was calculated from the following formula: Percent coaggregation=[OD540(A)+OD540(B)−OD540(A+B)]/(OD540(A)+OD540(B)), where A is the control containing cells of one strain, B is the control containing cells of the other strain, and A+B is the reaction mixture containing both cells. […]

[12] = system: S. sanguis; test: Adhesion of S. sanguis to saliva-coated hydroxylapatite beads; type: cell-based, Streptococcus sanguis; details: polyphenol oxidase 100 μg/ml or 150 units; asparaginase 20 U/ml; 1 hr at 37° C.
Description: S. sanguis was grown and handled according to procedures known to those of skill in the art. Hydroxylapatite beads were coated with saliva and washed. Adhesion was measured using [^3H]thymidine labeled streptococci. Various cell densities were run but using a single 40 mg weight of beads.
The “cooperative” adhesion (loss of upward slope on the Scatchard plot) was absent following both enzyme treatments. Incubation of cells with enzymes was 1 hr at 37° C.

[13] = system: Influenza A strain H1N1; test: Hemagglutination of chicken erythrocytes by influenza virus; type: cell-based; details: polyphenol oxidase 70 U/ml or asparaginase 10 U/ml; untreated 256
[14] = system: Candida albicans; test: Adhesion of Candida albicans to buccal cells; type: cell-based; details: 37° C. 60 min, ave ±SE, 5 runs
[15] = system: type 1-fimbriated and P-fimbriated E. coli; test: Growth inhibition of E. coli; type: cell-based
Description: Similar and/or art recognized methods were used to monitor the effects of asparaginase on growth of other microbes including two strains of E. coli, S. pyogenes, Klebsiella pneumoniae, Bacillus cereus, and Proteus vulgaris. Both type 1-fimbriated and P-fimbriated E. coli were incubated with polyphenol oxidase, asparaginase, and ampicillin to test the ability of these agents to inhibit the growth of the bacteria.

[16] = system: F. nucleatum (adhesin) / A. actinomycetemcomitans (receptor); test: Coaggregation F. nucleatum / A. actinomycetemcomitans; details: polyphenol oxidase 90 U/ml, asparaginase 20 U/ml
Description: as §2, §3, §4

[17] = ampicillin 1 mg/ml to 0.015 mg/ml, polyphenol oxidase 1128 to 17.5 units/ml, asparaginase 20 to 0.31 units/ml, data not shown

B1: asparaginase: enzyme that catalyzes hydrolysis of the side chain amide group of asparagine to a carboxyl group; E. coli asparaginase (protein, UniProt P00805 23-348, looked up)
L-asparaginase 2: LPNITILATGGTIAGGGDSATKSNYTVGKVGVENLVNAVPQLKDIANVKGEQVVNIGSQDMNDNVWLTLAKKINTDCDKTDGFVITHGTDTMEETAYFLDLTVKCDKPVVMVGAMRPSTSMSADGPFNLYNAVVTAADKASANRGVLVVMNDTVLDGRDVTKTNTTDVATFKSVNYGPLGYIHNGKIDYQRTPARKHTSDTPFDVSKLNELPKVGIVYNYANASDLPAKALVDAGYDGIVSAGVGNGNLYKSVFDTLATAAKTGTAVVRSSRVPTGATTQDAEVDDAKYGFVASGTLNPQKARVLLQLALTQTKDPQQIQQIFNQY
- Absorbance (collagen) ([1]; S. pyogenes M4, untreated 0.19): 0.10
- Absorbance (collagen) ([1]; S. pyogenes M24, untreated 0.31): 0.13
- inhibition of growth of Klebsiella pneumoniae [2]: did not significantly inhibit growth
- proteolytic activity on azocoll [3]: markedly reduced proteolytic activity
- inhibition of growth of S. sobrinus [4]: did not significantly inhibit growth
- decrease in adhesion to UECs ([5]; asparaginase <2 units/ml): 13%
- decrease in adhesion to UECs ([5]; asparaginase >2 units/ml): 85-90%
- prevention of adhesion to UECs ([5]; asparaginase singly, 10 units/ml): 90%
- reduction in adhesion to UECs ([5]; bacteria first incubated with MUMB 50 mM, then polyphenol oxidase 141 units/ml or asparaginase 10 units/ml): 50%
- increase in adhesion to UECs ([5]; mannopyranoside 50 mM followed by asparaginase 10 units/ml): 40%
- binding to the mannose receptor [6]: reduced binding
- Absorbance (collagen) ([7]; S. aureus Cowan, untreated 0.47): 0.30
- Absorbance (collagen) ([7]; S. aureus Wood, untreated 0.40): 0.26
- Hemagglutination ([8]; dilution 1/2): +
- Hemagglutination ([8]; dilution 1/8): +
- Hemagglutination ([8]; dilution 1/16): +
- Hemagglutination ([8]; dilution 1/32): +
- Hemagglutination ([8]; dilution 1/64): +
- Hemagglutination ([8]; dilution 1/128): −
- Hemagglutination ([8]; dilution 1/256): −
- Hemagglutination ([8]; dilution 1/512): −
- trypsin-like activity (BAPNA hydrolysis) [9]: diminished
- Absorbance (collagen) [10]: 0.05
- Inhibition % of coaggregation [11]: i 31%
- adhesion to hydroxylapatite [12]: reduced adhesion
- Hemagglutination Titers, Dilution of Virus + RBCs (fold) [13]: 64 fold
- Candida/buccal cell ([14]; cells, 20 U/ml, control 9.0 ± 3.5): 7.0 ± 2
- Candida/buccal cell ([14]; cells, 60 U/ml, control 9.0 ± 3.5): 4.5 ± 1.5
- Candida/buccal cell ([14]; hyphae, 20 U/ml, control 5.1 ± 3.1): 3.1 ± 2.0
- Candida/buccal cell ([14]; hyphae, 60 U/ml, control 5.1 ± 3.1): 1.3 ± 1.2
- inhibition of growth of two strains of E. coli [15]: did not significantly inhibit growth
- inhibition of growth of P-fimbriated E. coli [15, 17]: Neither polyphenol oxidase (1128 units/ml to 17.5 units/ml) or asparaginase (20 units/ml to 0.31 units/ml) concentrations tested were able to inhibit the growth
- inhibition of growth of type 1-fimbriated E. coli [15, 17]: Neither polyphenol oxidase (1128 units/ml to 17.5 units/ml) or asparaginase (20 units/ml to 0.31 units/ml) concentrations tested were able to inhibit the growth
- Inhibition % of coaggregation ([16]; A. actinomycetemcomitans (receptor) enzyme treated): 40%
- Inhibition % of coaggregation ([16]; F. nucleatum (adhesin) enzyme treated): 23%
